In patent US9962447B2, “Supramolecular aggregates comprising maleimido cores” (UFPEPTIDES S.R.L., priority 2013, dated 2018):

Tests used:
[1] = molecular target: human NOP receptor (Homo sapiens, UniProt P41146); assay: Calcium mobilization in CHO cells expressing human NOP receptor and Gαqi5; assay type: cell-based; conditions: inactive = inactive up to 1 μM
Description: Cells were maintained in culture medium consisting of Dulbecco's MEM/HAM'S F-12 (50/50) supplemented with 10% foetal calf serum, penicillin (100 IU/ml), streptomycin (100 μg/ml), fungizone (2.5 μg/ml), geneticin (G418; 200 μg/ml) and hygromycin B ([…]). Cell cultures were kept at 37° C. in 5% CO2 humidified air. In all cases experimental cultures were free from selection agents (hygromycin B, G418). When confluence was reached (3-4 days), cells were sub-cultured as required using trypsin EDTA and used for experimentation. Cells were seeded at a density of 50,000 cells/well into 96-well black, clear-bottom plates. After 24 hours incubation the cells were loaded with medium supplemented with 2.5 mM probenecid, 3 μM of the calcium sensitive fluorescent dye Fluo-4 AM and 0.01% pluronic acid, for 30 min at 37° C. Afterwards the loading solution was aspirated and 100 μl/well of assay buffer: Hank's Balanced Salt Solution (HBSS) supplemented with 20 mM HEPES, 2.5 mM probenecid and 500 μM Brilliant Black (Aldrich) was added. […] On-line additions were carried out in a volume of 50 μl/well. […]
(§1) Four mice were monitored in parallel. […] Animals locomotion was recorded for 60 min.

[2] = test system: electrically stimulated mouse vas deferens; assay: Electrically stimulated mouse vas deferens
Description: The bath temperature was set at 33° C. Tissues were continuously stimulated through two platinum ring electrodes with supramaximal rectangular pulses of 1 ms duration and 0.05 Hz frequency. A resting tension of 0.3 g was applied to the vas deferens.
assuming a slope value equal to unity, where CR indicate the ratio between agonist potency in the presence and absence of antagonist.

[3] = test system: vas deferens tissues taken from NOP(−/−) mice; assay: Electrically stimulated vas deferens from NOP(−/−) mice; parameters: species or system mouse; conditions: CL95% in brackets
Description: The mouse vas deferens were prepared as previously described (Calto et al., Eur J Pharmacol. 311, (1996) R3-5). Tissues were suspended in 5 ml organ baths containing heated Krebs solution (composition in mM: NaCl 118.5, KCl 4.7, KH2PO4 1.2, NaHCO3 25, glucose 10 and CaCl2 2.5) oxygenated with 95% O2 and 5% CO2. The bath temperature was set at 33° C. Tissues were continuously stimulated through two platinum ring electrodes with supramaximal rectangular pulses of 1 ms duration and 0.05 Hz frequency. A resting tension of 0.3 g was applied to the vas deferens. The electrically evoked contractions (twitches) were measured isotonically with a strain gauge transducer (Basile 7006, UgoBasile s.r.l., Varese, Italy) and recorded with the PC based acquisition system Power Lab (ADInstrument, USA). Following an equilibration period of 60 min, the contractions induced by electrical field stimulation were stable.

[4] = test system: spontaneous locomotor activity; assay: Mouse locomotor activity, CD-1 mice, i.c.v.; assay type: in vivo
[5] = molecular target: MOP receptor (Homo sapiens, UniProt P35372); assay: Calcium mobilization in CHO cells expressing MOP receptor and Gαqi5; assay type: cell-based; conditions: inactive = inactive up to 1 μM
Description: Cell cultures were kept at 37° C. in 5% CO2 humidified air. In all cases experimental cultures were free from selection agents (hygromycin B, G418). When confluence was reached (3-4 days), cells were sub-cultured as required using trypsin EDTA and used for experimentation. Cells were seeded at a density of 50,000 cells/well into 96-well black, clear-bottom plates. After 24 hours incubation the cells were loaded with medium supplemented with 2.5 mM probenecid, 3 μM of the calcium sensitive fluorescent dye Fluo-4 AM and 0.01% pluronic acid, for 30 min at 37° C. Afterwards the loading solution was aspirated and 100 μl/well of assay buffer: Hank's Balanced Salt Solution (HBSS) supplemented with 20 mM HEPES, 2.5 mM probenecid and 500 μM Brilliant Black (Aldrich) was added. […] On-line additions were carried out in a volume of 50 μl/well. To facilitate drug diffusion into the wells in antagonist type experiments, the present studies were performed at 37° C. and three cycles of mixing (25 μl from each well moved up and down 3 times) were performed immediately after antagonist injection to the wells.
as §1

[6] = test system: locomotor activity of NOP(+/+) mice; assay: Locomotor activity of NOP(+/+) mice; conditions: 0.25 nmole, 120 min post injection
Description: (§2) Mice were positioned in a square plastic cage (40×40 cm), one mouse per cage. Four mice were monitored in parallel. Mouse horizontal activity was monitored by a camera while vertical activity was measured by an infrared beam array. Animals locomotion was recorded for 60 min.
(§3) In vivo data are expressed as mean±sem of n animals. Data were analysed using one-way analysis of variance (ANOVA) followed by Dunnett post hoc test. Differences were considered statistically significant when p<0.05.

[7] = test system: locomotor activity of NOP(−/−) mice; assay: Locomotor activity of NOP(−/−) mice; conditions: 0.25 nmole, 120 min post injection
Description: as §2, §3

[8] = test system: vas deferens tissues taken from NOP(+/+) mice; assay: Electrically stimulated vas deferens from NOP(+/+) mice; parameters: species or system mouse
Description: The bath temperature was set at 33° C. Tissues were continuously stimulated through two platinum ring electrodes with supramaximal rectangular pulses of 1 ms duration and 0.05 Hz frequency. A resting tension of 0.3 g was applied to the vas deferens. […] Following an equilibration period of 60 min, the contractions induced by electrical field stimulation were stable.

Chain of MOP receptor (P35372 whole entry): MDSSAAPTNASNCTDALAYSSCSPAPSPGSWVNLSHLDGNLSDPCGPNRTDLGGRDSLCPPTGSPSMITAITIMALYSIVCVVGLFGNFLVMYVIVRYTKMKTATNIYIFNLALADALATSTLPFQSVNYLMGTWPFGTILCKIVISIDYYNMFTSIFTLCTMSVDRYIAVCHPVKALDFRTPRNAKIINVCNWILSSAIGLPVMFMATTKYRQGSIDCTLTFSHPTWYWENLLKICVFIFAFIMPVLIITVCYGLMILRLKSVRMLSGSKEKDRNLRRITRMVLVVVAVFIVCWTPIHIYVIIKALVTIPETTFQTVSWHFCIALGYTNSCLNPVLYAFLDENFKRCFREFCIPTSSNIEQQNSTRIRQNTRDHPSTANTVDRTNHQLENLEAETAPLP
Chain of human NOP receptor (P41146 whole entry): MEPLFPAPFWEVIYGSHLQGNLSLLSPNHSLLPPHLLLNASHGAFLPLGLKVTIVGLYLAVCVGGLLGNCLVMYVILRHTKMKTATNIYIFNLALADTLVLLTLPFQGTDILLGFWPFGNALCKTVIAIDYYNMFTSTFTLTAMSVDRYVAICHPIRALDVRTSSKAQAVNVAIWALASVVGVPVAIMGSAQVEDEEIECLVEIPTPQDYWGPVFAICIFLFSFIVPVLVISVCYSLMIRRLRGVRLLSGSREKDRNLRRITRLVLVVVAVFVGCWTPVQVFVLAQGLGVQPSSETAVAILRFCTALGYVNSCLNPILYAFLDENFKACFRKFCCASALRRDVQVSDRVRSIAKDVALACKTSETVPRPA

B1: PWT2-N/OFQ: supramolecular aggregate of maleimido core PWT2 with nociceptin/orphanin FQ, made from PWT2 and [Cys18]N/OFQ-NH2 by thiol-Michael addition (conjugate)
peptide: SCQRDCLTCQEKLHPALDSFDLEVCILECEEKVFPSPLWTPCTKVMARSSWQLSPAAPEHVAAALYQPRASEMQHLRRMPRVRSLFQEQEEPEPGMEEAGEMEQKQLQKRFGGFTGARKSARKLANQKRFSEFMRQYLVLSMQSSQRRRTLHQNGNVC
For B1, the “pEC50 (CL95%)” value [1] was 8.83, the “reversal of inhibitory effect after washing the tissue” value [2] was “rather resistant to washing” and the Emax ([2]; % inhibition of control twitch) was 93 ± 2%. For the same molecule, the “onset of inhibitory effect” value ([2]; after adding to the bath) was “slow inhibitory effect”, the pEC50 ([2]; inhibition of twitch response, CD1 mouse vas deferens, CL95% in brackets) was 7.78 (7.57-7.99) and the “time for inhibitory effect to reach the plateau” value ([2]; mouse vas deferens) was 10 min. For the same molecule, the pEC50 [3] was 5.85 (5.55-6.15), the “locomotor activity in overnight experiment” value ([4]; i.c.v. at 11 AM, N/OFQ 10 nmole, PWT2-N/OFQ 0.25 nmole, measured 3 PM to 9 AM) was “statistically significant reduced distance travelled and rearing behaviour associate with increased immobility time for the whole time course of the experiment” and the “acute effects on spontaneous locomotor activity” value ([4]; i.c.v., CD-1 mice, recorded for 120 min) was “slow onset of action and prolonged effects compared to the natural peptide”. For the same molecule, the pEC50 [5] was “inactive”, the “Distance travelled (m)” value [6] was 104 ± 19 m and the “Immobility time” value [6] was 3305 ± 390 s. For the same molecule, the “Rearings (n)” value [6] was 96 ± 19 n, the “Distance travelled (m)” value [7] was 203 ± 26 m and the “Immobility time” value [7] was 2372 ± 525 s. The “Rearings (n)” value [7] was 625 ± 181 n, the pEC50 ([8]; CL95% in brackets) was 7.92 and the Emax ([8]; maximal inhibition of electrically induced contractions) was 91 ± 2%.
